Experimental data as given in the DeepSol protein solubility set.

experiment: soluble on expression in E. coli; label from the status in PepcDB or PDB records

Row | Sequence | soluble on expression in E. coli
1 | MPDQPSHNPAEHTTGEAPAPDALRADARRNRERVLEAAREVFSARGVDAPMSAVARRAGVGVATLYRRFPTRSSLVAAAFDDQLTVCAAAFDEALADPDPGHGLYTLLRKVCTTLVTDRGFETVFMAGFPASLDYDRERACAEERLAHLVRRARDAGRLREDFSPADIPLLLLAVSGLASQPPETAVPAAHRLLTYLFQSFQADPPPRPAPLPPAPTLDLSGLHRPAERP | not soluble
2 | MPDRPQHPTASRQSSMVSWNHGAAGWLHCVQCGSATNPTACLDWLPPIHARSGPMYAEHDVVVLTRDVPDKSLIAGDVGAVVGRYAAGGYEVDFTAANGCTVAVVTLAGDDIRPRRRREIPHVREVA | not soluble
3 | MPEPDKQATRKKRTTSSLTDSTVFDPAKQVLWSRPGYLVRRLNQIHYALFYEECKTQNVTPVQYGVLTALSLSPWLDQTAIGMELGLDRTTTADVIKRLQERGLVERRVNPNDKRSRQAVITQEGLRIMGLLQGGMARAQQRLLEPLSPRNREIFMKLLSTLVDANNQYSRTALKAM | not soluble
4 | MPFKDQLFLASQYLAPHHLVSRLMGRAADCRAPEIKNRMIARFVRRYNVDMSEALVEDPLAYASFNDFFTRALKPDARPLDDEPGAALCPADGAISQIGAIDNGRIFQAKGHSFGLTDLLGGDAERAAPFAGGQFATIYLSPRDYHRVHMPLAGTLREMVHVPGRLFSVNPLTARSVPELFARNERVACLFDTEHGPMALVLVGAMIVASIETVWAGLVTPHKRQVRSVRYDAAARAPIHLDKGAEMGRFKLGSTVIVLFGPKRLRWLDLPSVRGPVRMGETLALPASTAISFPESELEHHHHHH | not soluble
5 | MPFPFSRLFSFGVEHETGYVSRQSGRGRVYKGGGYSPFTITFQVSTHRSTMSDVTVAETPAVKTPTKAPKAPKSKTTKEPKAKVAAAHPPFINMVTAAISSLKERKGSSKIAILKYITANYKVGDQLTKINSRLRAALNKGVASKALVQSVGNGASGRFRVAEKAAATKKPVAKKPVAKKAATGEKKAKKTTVAKKTGDKVKKAKSPKKIAKPAAKKVAKSPAKKAAPKKAPAKKAAAPKA | not soluble
6 | MPGKRRFRRSPVKYDFFTRLLQTGFLSTDSLLYPESQFHICTQLSSQDAYADNLEHHHHHH | not soluble
7 | MPGVEPYEPLQLMGRDVYIREGCVGCHSQQVRTLQAEVQRYGPYSVAGESVFDHPFLWGSKRTGPDLARVGERYSDEWHRIHLRDPRAVVPESNMPAYPWLQHADLTGQNVAQRMQALRRLGVPYTDEAIAAAPAAIAGKTEEDALVAYLQALG | not soluble
8 | MPILGHNILKIEFEKLQTLGGKIEVSLRPTIRNLRLGEMHLPSGKVKGIEVDVDYIITYSPEVARASIKVRVFYVPRNKEDIDNILDEWEDRKVLPGELVAEVVNFTTSELMPIAMYIAKEMRIPYPVPLPRAVVRGE | soluble
9 | MPISETWLLPDGVADVLPEQAQVVETLRRQALDFLASRGYQLVYTPFIEYIESLSLLSESNHDLDLVTFKVIDQLSGRLLGVRADMTPQVARIDAHVRSIEGVARYCYAGTVLHTKPQNFNSSRAPLQLGAELYGHQSLEADIEMVDVMLGLIQQAHNLEGLHLDLGHVGLFRSLVKRAGLSKQVEQDLSDLYQRKALPELEEVTKTLAFGSDFYALGRYASDLNALEQHLSQDVLNDASFKTSLDDLKTTLSQIQTRWPNLRIGIDVVELRSYHYHTGLMYAVYAPNRAAPLAQGGRYDGIGEHFGRARPATGFSCDLYALCVGQFKEIETIVAPAGQDQQLLGAIAQARQNGLRVIQLLGNDDLSSVPYATHKMELAQDQWQINKI | not soluble
10 | MPKEWLAEDLSEQYVADYKAFNFVDGEGVRCSLYLSGCPFHCPGCYNVAAQNFHYGQPYSQELEDQIIEDLGQDYVQGLTLLGGEPFLNTQVGIRICERIRSEFGNTKDIWSWSGYTWEELQQDSEDKLKMLSLIDILVDGRFLQDKMDLSLQFRGSSNQRIIDVPKSLTAGKVVIWDKLVKLEHHHHHH | soluble
11 | MPKINTSSSGWLADISLFYEKRGTNTKLVHREQVGPLMVQRPFYPETGIAHTYLLHPPGGVVGGDQLNINIHVSPQAHSLLTTPGATKFYRSSGATSSQTQNLTVESDGFLEWLPQENIFFPDSQAQLKTQVELHKNAHFIGWEMNCFGRPVLDEIFENGFVTGRTNIKVDDQLLLSESMYIDSIDEIKHAAGMRHYPMLGNLYIYPASEALEEKLRTLIDENFHEQPELFGSSNPICGITEIDGLLVIRYLGHQTEPMMACFSTLWQHTRQHWLGKLPEVPRIWATLEHHHHHH | not soluble
12 | MPKLYVIPTPIGNLKDITLRALEVLKEVNYIACEDTRRTMILLNHYGIKGKKLISYYEPKEEKQIPKILKVLEKEDVALVTDAGMPAISDPGYRLIRKCIEKGIEIEVLPGPSAVITALVGSGLPPDRFLFVGFPPKKGTKGFFEELKSCEDTTVILFENPNRLLKTLKIIHEVFGNVQACVARELTKLHEEYIRGNLEEIIQELESREKIKGEVVVLFRILEHHHHHH | soluble
13 | MPKWGNINERRNQLHEVIRLSGMNLIIDDTDHPLIIKVASIQSARMQVYFIDNDDYFQNRLQTADENGVEYDDNDSRAIFYARGVLETVKKLRWCPDVIHCHGWMTALAPLYIKKAYKDEPSFRDAKVVFSVYEDDFKNTLSEDFATKLMLKGITKKDLAGLKEPVDYAALCKLAVDYSDGIIQNSAKVDESIIEYARQSGKLVLDYQDPENYANACNEFYDQVWETTTNKEEELEHHHHHH | soluble
14 | MPLEASELKPTAGPLEASELKPTAGPLEASELKPTAGPLEASELKPTAGPLEASELKPTAGPLEASELKPTAGPLEASELKPTAGMEKTKKIAVMSGKGGVGKTTVAVNLAVALAAEGYQVGLLDLDLHGPNVQRMLGVSLPPSEGEKIVPAKYGDSLKVFSLAMILQEGAPVIWRGPLKHKAIEQLTRDVEWGDLDYLICDLPPGTGDEALSTFQIIKPDAVIVVSTPQKVAGDDVRRAINFVKRLSGKILGLVENMSYLVCPNCGEKIYVFGKGETEKLAEEFGIPLIARIPMDPEVVSLSDEGRPAVVYKRGTVIEEEFKKIVEKVLSLLEHHHHHH | not soluble
15 | MPLFKRRDGSGPAPNATIREKYDFRDVLGTGAFSKVFLAESKSDAGQMYAVKCIDKKALKGKEESLENEIKVLRKLRHNNIVQLFDTYDEKQFVYLVMELVTGGELFDRIVAKGSYTEQDASNLIRQVLEAVGFMHDNGVVHRDLKPENLLYYNQDEDSKIMISDFGLSKTEDSGVMATACGTPGYVAPEVLQQKPYGKAVDVWSIGVIAYILLCGYPPFYDESDANLFAQIIKGEYEFDAPYWDQISDSAKDFITHLMCCDPEARFTCQDALSHPWISGNTAYTHDIHGTVAVHLKKSLAKRNWKKAYNAAAAIRQLQMLRLSSNSNRLQKQASQQQPEPPTPAFHA | soluble
16 | MPMPFTRDDDYDSDPEVQAEKEMAKKDPIGFAIDSSSLTSMKKAAAAAAKDQVSTTPPNLVIGSNGGAGTIATVPRSKSQDEIVKKQKTAGQSKALKKQRSRGISGCSSRKYSGYDDEMDEDFGDDEDYDHYGGQEVFDEDEEDTFVAKK | not soluble
17 | MPMTLGYWNIRGLAHSIRLLLEYTDSSYEEKKYTMGDAPDYDRSQWLNEKFKLGLDFPNLPYLIDGTHKITQSNAILRYIARKHNLCGESEKEQIREDILENQFMDSRMQLAKLCYDPDFEKLKPEYLQALPEMLKLYSQFLGKQPWFLGDKITFVDFIAYDVLERNQVFEPSCLDAFPNLKDFISRFEGLEKISAYMKSSRFLPRPVFSKMAVWGNK | soluble
18 | MPNASQVYRSTRSSSPKTISFEEAIIQGLATDGGLFIPPTIPQVDQATLFNDWSKLSFQDLAFAIMRLYIAQEEIPDADLKDLIKRSYSTFRSDEVTPLVQNVTGDKENLHILELFHGPTYAFKDVALQFVGNLFEYFLQRTNANLPEGEKKQITVVGATSGDTGSAAIYGLRGKKDVSVFILYPTGRISPIQEEQMTTVPDENVQTLSVTGTFDNCQDIVKAIFGDKEFNSKHNVGAVNSINWARILAQMTYYFYSFFQATNGKDSKKVKFVVPSGNFGDILAGYFAKKMGLPIEKLAIATNENDILDRFLKSGLYERSDKVAATLSPAMDILISSNFERLLWYLAREYLANGDDLKAGEIVNNWFQELKTNGKFQVDKSIIEGASKDFTSERVSNEETSETIKKIYESSVNPKHYILDPHTAVGVCATERLIAKDNDKSIQYISLSTAHPAKFADAVNNALSGFSNYSFEKDVLPEELKKLSTLKKKLKFIERADVELVKNAIEEELAKMKL | soluble
19 | MPNNETEASMRNTLFPTLKWSLLVLMTSLLTACGFHLRGDYDIPQELSRMSLTSYDQYSTFTRMVHRQLRLNKIDLQAPAEDLPNLHLLSESTGERTLSLYQNTRAAEIELTFVASYRVTVPELGSRTFTTSVTRSYLDNPLTALAKSVERDMIEDEMRKLAASQIVRQMARLKADFARKTLDDESIEGKGITDYRVDTQEVANPVSTEGSSELEHHHHHH | soluble
20 | MPNTPHTMNLYIKNIAQLVTCQGSEAKHGREAMGQIHTIEGPAAVVIRDGIIAFAGRMADVAPSMTEGCRELDATGRCVLPGFVDSHTHLVFGGYREDEFQWRLAGDSYMSIMERGGGIASTMRATRSESEDELKASARRHLSNMMKMGVTTVEAKSGYGMNLETELKQLRVVRDLQDEQPLDLYSTFMGAHDTAPEYKGRPTEFIEYLCREVLPEVVRQNLAECCDIFTEKGVFDHEQTRRMLTAAKEAGLSVKMHADEIVPFGGAELAAELGCLSADHLLRISDAGIKALAESNTVATLLPCTAFSLRADYAPARKMIDAGCAVALGSDLNPGSCFSASVPLMFALATLYMGMTVEEAITALTINGAAAIGRADTIGSIEPGKKGDLVVLQYPSYKFLSYHFGMNLVEHTVKGGRVVYTNS | not soluble
21 | MPNTTNKDYTKYSQRQLFSFLNSIKTKQKRALEKLKEIQAQKQRIKKALQFKALNLTENGYTIEEEREILARAKDTKNRLCFKSIEDFKKHCENL | not soluble
22 | MPNYLENVKDAAAIIASARRIMVVGCSGGGKSTLSQKLAAAFGLRYISMDRDIFWLPGWQLRPREEQRQRIAAVVTEDRWLMDGSNPSSFDLRLPRTDIVLWVRMPRWLCLWGAVSRIVKGYGKARPEMAAGCPERIDLDFLRYIWNFERRHTPVFEESFALHGPNVPIFQLKSRKQIRRLLDLLVVEDLEHHHHHH | soluble
23 | MPPASLTFEPPSVVAVFATHAVLCWEQPRTPHTTSFAEHMAWEYQIEYNCSCRVRQQPYCATGSNTFVLLATPHEGETYYVRVVAKASFAGSTSGLVSAKAAFTASCNVAMPWRCSARPPVCVFDALYLSANVEAEDIAALSAARSSTIDNAAVLDGKSVCYTLEGDIAVRTYRMLYSGTAALPVGPARTVYYMVATTRLHTGKRTRAMELLSIMQREGASIVFCGIGDGGRLALCAALTFLSFLTTACPALCASVLCITYGTPRLLLKEGPRLLAHTLPLSGQLLHFTQLPLIEHTPFVSDTVALSQRGSGVAVDTPPLGYANGFYRNMLLGAQCRVTDWTGLHFRLSSPDELSTEAEEAEVFDVVGQLRALSELFFPSSLQWLSPSVTSVSCRTEGPLLHVSVEGLTCITALG | not soluble
